{
  "source": "paper PMC5018210",
  "about": "(Nature, 2016)",
  "proteins": {"B1": {"name": "MHV S ectodomain trimer (murine hepatitis virus spike glycoprotein ectodomain, R717S, fused to a GCN4 trimerization motif) (domain or fragment)", "chain": "YIGDFRCIQLVNSNGANVSAPSISTETVEVSQGLGTYYVLDRVYLNATLLLTGYYPVDGSKFRNLALRGTNSVSLSWFQPPYLNQFNDGIFAKVQNLKTSTPSGATAYFPTIVIGSLFGYTSYTVVIEPYNGVIMASVCQYTICQLPYTDCKPNTNGNKLIGFWHTDVKPPICVLKRNFTLNVNADAFYFHFYQHGGTFYAYYADKPSATTFLFSVYIGDILTQYYVLPFICNPTAGSTFAPRYWVTPLVKRQYLFNFNQKGVITSAVDCASSYTSEIKCKTQSMLPSTGVYELSGYTVQPVGVVYRRVANLPACNIEEWLTARSVPSPLNWERKTFQNCNFNLSSLLRYVQAESLFCNNIDASKVYGRCFGSISVDKFAVPRSRQVDLQLGNSGFLQTANYKIDTAATSCQLHYTLPKNNVTINNHNPSSWNRRYGFNDAGVFGKNQHDVVYAQQCFTVRSSYCPCAQPDIVSPCTTQTKPKSAFVNVGDHCEGLGVLEDNCGNADPHKGCICANNSFIGWSHDTCLVNDRCQIFANILLNGINSGTTCSTDLQLPNTEVVTGICVKYDLYGITGQGVFKEVKADYYNSWQTLLYDVNGNLNGFRDLTTNKTYTIRSCYSGRVSAAFHKDAPEPALLYRNINCSYVFSNNISREENPLNYFDSYLGCVVNADNRTDEALPNCDLRMGAGLCVDYSKSRRAHSSVSTGYRLTTFEPYTPMLVNDSVQSVDGLYEMQIPTNFTIGHHEEFIQTRSPKVTIDCAAFVCGDNTACRQQLVEYGSFCVNVNAILNEVNNLLDNMQLQVASALMQGVTISSRLPDGISGPIDDINFSPLLGCIGSTCAEDGNGPSAIRGRSAIEDLLFDKVKLSDVGFVEAYNNCTGGQEVRDLLCVQSFNGIKVLPPVLSESQISGYTTGATAAAMFPPWSAAAGVPFSLSVQYRINGLGVTMNVLSENQKMIASAFNNALGAIQDGFDATNSALGKIQSVVNANAEALNNLLNQLSNRFGAISASLQEILTRLEAVEAKAQIDRLINGRLTALNAYISKQLSDSTLIKVSAAQAIEKVNECVKSQTTRINFCGNGNHILSLVQNAPYGLYFIHFSYVPISFTTANVSPGLCISGDRGLAPKAGYFVQDDGEWKFTGSSYYYPEPITDKNSVIMSSCAVNYTKAPEVFLNTSIPNPPDFKEELDKWFKNQTSIAPDLSLDFEKLNVTLLDLIKRMKQIEDKIEEIESKQKKIENEIARIKKIKLVPRGSLE"}},
  "target": "the molecule itself",
  "assay": "SEC-MALS",
  "data": [
    {"protein": "B1", "values": [
      {"measurement": "stoichiometry N", "value": 3}
    ]}
  ]
}
